Like-named read-outs stand apart in the source and are kept apart here.
Key:
[1] = target: T1, human HER-2 extracellular domain (HER-2 ECD) (human, UniProt P04626 23-646); assay: competitive Fab-phage ELISA
T1 construct: range 23-646; also called erbB2; HER2 protein

human IGF-1 (human) = human IGF-1 (human) (UniProt P05019); assay: specificity phage ELISA
[2] = target: T1, human HER-2 extracellular domain (HER-2 …); assay: competitive Fab-phage ELISA; remark: listed apart in the source

Row | IC50 [1] [nM] | ELISA signal at 450 nm (human IGF-1 (human)) | IC50 [2] [nM] | Binder
1 | 1.46 |  |  | B23 (Fab, V domains shown) VH: EVQLVESGGGLVQPGGSLRLSCAASGFYISYSYIHWVRQAPGKGLEWVASIYPYSGYTSYADSVKGRFTISADTSKNTAYLQMNSLRAEDTAVYYCARWWSSALDYWGQGTLVTVSS VL: DIQMTQSPSSLSASVGDRVTITCRASQDVNTAVAWYQQKPGKAPKLLIYSASSLYSGVPSRFSGSRSGTDFTLTISSLQPEDFATYYCQQSYYSPSTFGQGTKVEIK
2 | 70.4 |  |  | B25 (Fab, V domains shown) VH: EVQLVESGGGLVQPGGSLRLSCAASGFSISYSSIHWVRQAPGKGLEWVASIYPYYGYTYYADSVKGRFTISADTSKNTAYLQMNSLRAEDTAVYYCARFSFSSSSFAMDYWGQGTLVTVSS VL: DIQMTQSPSSLSASVGDRVTITCRASQDVNTAVAWYQQKPGKAPKLLIYSASSLYSGVPSRFSGSRSGTDFTLTISSLQPEDFATYYCQQYSYYPYTFGQGTKVEIK
3 | > 100 |  |  | B26 (Fab, V domains shown) VH: EVQLVESGGGLVQPGGSLRLSCAASGFSISYSSIHWVRQAPGKGLEWVASIYPYYGYTYYADSVKGRFTISADTSKNTAYLQMNSLRAEDTAVYYCARFSFSSSSFAIDYWGQGTLVTVSS VL: DIQMTQSPSSLSASVGDRVTITCRASQDVNTAVAWYQQKPGKAPKLLIYSASSLYSGVPSRFSGSRSGTDFTLTISSLQPEDFATYYCQQYSSYPYTFGQGTKVEIK
4 |  | 0.29 | 1.26 | G30 (Fab, V domains shown) VH: EVQLVESGGGLVQPGGSLRLSCAASGFSIWWSWIHWVRQAPGKGLEWVASISPSSGWTSYADSVKGRFTISADTSKNTAYLQMNSLRAEDTAVYYCARWWSSALDYWGQGTLVTVSS VL: DIQMTQSPSSLSASVGDRVTITCRASQDVNTAVAWYQQKPGKAPKLLIYSASSLYSGVPSRFSGSRSGTDFTLTISSLQPEDFATYYCQQSWWWPSTFGQGTKVEIK
5 |  | 0.36 | 15.1 | G58 (Fab, V domains shown) VH: EVQLVESGGGLVQPGGSLRLSCAASGFYISYSSIHWVRQAPGKGLEWVASISPYSGYTYYADSVKGRFTISADTSKNTAYLQMNSLRAEDTAVYYCARSSYSYYYYSYALDYWGQGTLVTVSS VL: DIQMTQSPSSLSASVGDRVTITCRASQDVNTAVAWYQQKPGKAPKLLIYSASSLYSGVPSRFSGSRSGTDFTLTISSLQPEDFATYYCQQSSSSPSTFGQGTKVEIK
6 |  | 0.35 | 1.06 | G34 (Fab, V domains shown) VH: EVQLVESGGGLVQPGGSLRLSCAASGFSIWWSWIHWVRQAPGKGLEWVASISPSSGWTSYADSVKGRFTISADTSKNTAYLQMNSLRAEDTAVYYCARWWSSAFDYWGQGTLVTVSS VL: DIQMTQSPSSLSASVGDRVTITCRASQDVNTAVAWYQQKPGKAPKLLIYSASSLYSGVPSRFSGSRSGTDFTLTISSLQPEDFATYYCQQSWWWPSTFGQGTKVEIK
7 | 2.03 |  |  | B24 (Fab, V domains shown) VH: EVQLVESGGGLVQPGGSLRLSCAASGFSISYSYIHWVRQAPGKGLEWVASIYPYSGYTSYADSVKGRFTISADTSKNTAYLQMNSLRAEDTAVYYCARWWSSALDYWGQGTLVTVSS VL: DIQMTQSPSSLSASVGDRVTITCRASQDVNTAVAWYQQKPGKAPKLLIYSASSLYSGVPSRFSGSRSGTDFTLTISSLQPEDFATYYCQQSYYSPSTFGQGTKVEIK
